Experimental data: patent US20090110692A1 (UNIVERSITY OF IOWA RESEARCH FOUNDATION, published 2009)
Residue numbers refer to the chain shown, from its start. Numbers in names are those of the source.

Key:
[1] = biological target: T1, TLR4 stably expressed on HEK293 cells (HEK/TLR4) (UniProt O00206 24-839, limits assumed); experiment: cell-based or functional assay
[2] = biological target: T1, TLR4 stably expressed on HEK293 cells …; experiment: inferred from dose-dependent inhibition of HEK/TLR4 activation by the wt complex (IL-8)
[3] = biological target: T1, TLR4 stably expressed on HEK293 cells …; experiment: cell association of radiolabelled complex with HEK/TLR4 cells, overnight 37 C, liquid scintillation (FIG. 3)
[4] = biological target: T1, TLR4 stably expressed on HEK293 cells …; experiment: competition: excess free MD-2 against ^3H-LOS:MD-2 on HEK/TLR4 cells, liquid scintillation
[5] = biological target: T1, TLR4 stably expressed on HEK293 cells …; experiment: inferred from intermediate inhibition of HEK/TLR4 activation by LOS:MD-2 (IL-8)

T1 sequence (O00206 24-839 limits assumed): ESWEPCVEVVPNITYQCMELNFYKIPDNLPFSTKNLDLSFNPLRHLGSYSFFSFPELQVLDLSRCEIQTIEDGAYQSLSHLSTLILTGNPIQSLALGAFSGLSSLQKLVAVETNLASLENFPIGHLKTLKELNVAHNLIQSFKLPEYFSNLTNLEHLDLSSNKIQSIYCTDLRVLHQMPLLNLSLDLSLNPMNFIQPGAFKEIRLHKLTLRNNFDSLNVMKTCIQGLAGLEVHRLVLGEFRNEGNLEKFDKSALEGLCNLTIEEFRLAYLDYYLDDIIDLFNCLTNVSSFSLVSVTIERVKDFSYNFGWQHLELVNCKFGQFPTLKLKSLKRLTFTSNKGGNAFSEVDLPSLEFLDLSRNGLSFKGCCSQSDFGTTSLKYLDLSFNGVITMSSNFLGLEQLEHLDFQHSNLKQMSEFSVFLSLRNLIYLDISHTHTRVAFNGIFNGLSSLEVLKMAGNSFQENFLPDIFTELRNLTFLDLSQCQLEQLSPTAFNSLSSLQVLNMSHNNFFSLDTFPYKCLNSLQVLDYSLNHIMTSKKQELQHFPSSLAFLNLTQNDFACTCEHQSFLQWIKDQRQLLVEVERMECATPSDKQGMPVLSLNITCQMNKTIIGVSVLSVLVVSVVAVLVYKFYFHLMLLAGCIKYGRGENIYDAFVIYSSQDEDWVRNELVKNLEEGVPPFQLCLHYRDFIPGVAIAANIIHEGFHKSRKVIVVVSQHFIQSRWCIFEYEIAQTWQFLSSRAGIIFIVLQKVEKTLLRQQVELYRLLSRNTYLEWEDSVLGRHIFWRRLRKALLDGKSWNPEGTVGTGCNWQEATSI

B1: E:MD-2 K125A.F126A (monomeric complex of wild-type endotoxin with MD-2 mutant K125A.F126A) (ligand)
chain: QKQYWVCNSSDASISYTYCDKMQYPISINVNPCIELKRSKGLLHIFYIPRRDLKQLYFNLYITVNTMNLPKRKEVICRGSDDDYSFCRALKGETVNTTISFSFKGIAASKGKYKCVVEAISGSPEEMLFCLEFVILHQPNSN
activation (IL-8) of HEK/TLR4 cells relative to wt E:MD-2 [1]: ~10%

B2: E:MD-2 (F126A) (monomeric complex of wild-type LOS with MD-2 mutant F126A) (ligand)
chain: B1 chain with A107K
notes: also called LOS:MD-2 (F126A); F126A MD-2 mutant
binding result [2]: binds

B3: LOS:sCD14 complex (monomeric complex of N. meningitidis lipooligosaccharide with soluble CD14, Mr ~60,000) (other)
chain: TTPEPCELDDEDFRCVCNFSEPQPDWSEAFQCVSAVEVEIHAGGLNLEPFLKRVDADADPRQYADTVKALRVRRLTVGAAQVPAQLLVGALRVLAYSRLKELTLEDLKITGTMPPLPLEATGLALSSLRLRNVSWATGRSWLAELQQWLKPGLKVLSIAQAHSPAFSCEQVRAFPALTSLDLSDNPGLGERGLMAALCPHKFPAIQNLALRNTGMETPTGVCAALAAAGVQPHSLDLSHNSLRATVNPSAPRCMWSSALNSLNLSFAGLEQVPKGLPAKLRVLDLSCNRLNRAPQPDELPEVDNLTLDGNPFLVPGTALPHEGSMNSGVVPACARSTLSVGVSGTLVL
notes: also called ^3H-LOS:sCD14; endotoxin:sCD14
binding result [3]: no binding (tested: 0.75 ng/ml ^3H-LOS)

B4: soluble recombinant wild-type MD-2-His6 (not complexed to endotoxin), in dialyzed conditioned insect cell medium (other, human)
chain: QKQYWVCNSSDASISYTYCDKMQYPISINVNPCIELKRSKGLLHIFYIPRRDLKQLYFNLYITVNTMNLPKRKEVICRGSDDDYSFCRALKGETVNTTISFSFKGIKFSKGKYKCVVEAISGSPEEMLFCLEFVILHQPNSNHHHHHH
notes: Used as unpurified conditioned medium (about 10 ng MD-2 per microliter after concentration); also called wt MD-2; rMD-2
binding result [4]: binds

B5: soluble recombinant C95Y mutant MD-2-His6, in dialyzed conditioned insect cell medium (other, human)
chain: B4 chain with C77Y
notes: also called C95Y MD-2
binding result [5]: binds
